Measurements from patent publication EP4721754A1 (Hangzhou Sciwind Biosciences Co., Ltd., dated 2026).
Numbered stars: 1 amine (or outer) side, 2 acyl side, 3 side chain; on linkers, the order of the positions; unused ones are H or OH. Bridge positions count the residues as written; N and C are the ends. Square brackets hold non-standard residues; d marks the D form. Primed or numbered codes have the meaning given here. Ends that are not written are not given here. * marks the point of attachment. C22 diacid′ = docosanedioic acid (C22 diacid) acyl; C20 diacid = O=C(O)CCCCCCCCCCCCCCCCCCC(=O)*; C18 diacid = O=C(O)CCCCCCCCCCCCCCCCC(=O)*; C16 diacid = O=C(O)CCCCCCCCCCCCCCC(=O)*; γGlu = O=C(O)[C@H](CCC(=O)[*:2])N[*:1]; βAsp = O=C(O)[C@H](CC(=O)[*:2])N[*:1]; Hyp = O=C(O)[C@@H]1C[C@@H](O)CN1; Inp′ = not defined here; AEEA = NCCOCCOCC(=O)O

T1: amylin receptor (hAMY3R) (human, UniProt P30988 25-474; O60896 24-148)
T1 sequence (looked up) 1: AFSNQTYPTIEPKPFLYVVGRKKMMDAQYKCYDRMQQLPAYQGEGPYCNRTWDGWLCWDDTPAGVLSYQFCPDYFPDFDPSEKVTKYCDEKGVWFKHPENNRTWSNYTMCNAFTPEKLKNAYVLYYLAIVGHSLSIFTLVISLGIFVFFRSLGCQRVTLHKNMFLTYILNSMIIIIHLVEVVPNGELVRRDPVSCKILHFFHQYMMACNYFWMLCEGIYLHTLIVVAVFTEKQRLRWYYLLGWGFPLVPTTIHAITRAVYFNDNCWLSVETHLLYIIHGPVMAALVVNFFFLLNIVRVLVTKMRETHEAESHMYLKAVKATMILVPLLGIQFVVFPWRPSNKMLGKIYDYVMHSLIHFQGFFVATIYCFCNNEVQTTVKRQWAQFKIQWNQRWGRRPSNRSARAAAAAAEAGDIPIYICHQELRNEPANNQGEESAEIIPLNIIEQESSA
T1 sequence (looked up) 2: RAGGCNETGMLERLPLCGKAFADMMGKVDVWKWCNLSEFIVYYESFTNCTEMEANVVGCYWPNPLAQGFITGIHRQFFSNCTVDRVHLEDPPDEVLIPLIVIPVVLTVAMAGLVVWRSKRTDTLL

T2: calcitonin receptor (hCTR) (human, UniProt P30988 25-474)
T2 sequence (looked up): T1 sequence (looked up) 1

B1: M7 (peptide)
peptide: {C22 diacid′-γGlu}-ASQLSTAVLGRLSDELHRLQDYPRTDVGSGSP-NH2
modifications: ends and bridges not checked
B2: N2 (peptide)
peptide: {C20 diacid-βAsp-AEEA-AEEA}-KCNTATCATQRLADFLRHSSNNLKPILPPTNVGSNT[Hyp]-NH2
modifications: disulfide 2-7 (inferred); ends not checked
B3: N1 (peptide)
peptide: {C20 diacid-AEEA-AEEA}-KCNTATCATQRLADFLRHSSNNLKPILPPTNVGSNT[Hyp]-NH2
modifications: disulfide 2-7 (inferred); ends not checked
B4: M17 (peptide)
peptide: {C18 diacid-Inp′}-ASQLSTAVLGRLSDELHRLQDYPRTDVGSGSP-NH2
B5: M26 (peptide)
peptide: {C18 diacid}-D[AEEA][AEEA]ASQLSTAVLGRLSDELHRLQDYPRTDVGSGSP-NH2
B6: M13 (peptide)
peptide: {C18 diacid}-DASQLSTAVLGRLSDELHRLQDYPRTDVGSGSP-NH2
B7: M8 (peptide)
peptide: {C18 diacid-γGlu}-ASQLSTAVLGRLSDELHRLQDYPRTDVGSGSP-NH2
modifications: ends and bridges not checked
B8: M25 (peptide)
peptide: ASQLSTAVLGRLSDELHRLQDYPRTDVGSGSP
modifications: not fully specified; N terminus: C20 diacid + βAsp+2 AEEAs
B9: M14 (peptide)
peptide: B8 peptide
modifications: not fully specified; N terminus: C20 diacid + Trx
B10: M23 (peptide)
peptide: B8 peptide
modifications: not fully specified; N terminus: C20 diacid + αGlu+2 AEEAs
B11: M21 (peptide)
peptide: B8 peptide
modifications: not fully specified; N terminus: C20 diacid + yGlu+8 AEEAs
B12: M27 (peptide)
peptide: B8 peptide
modifications: not fully specified; N terminus: C20 diacid + Trx+2 AEEAs
B13: M16 (peptide)
peptide: B8 peptide
modifications: not fully specified; N terminus: C20 diacid + Inp
B14: M10 (peptide)
peptide: B8 peptide
modifications: not fully specified; N terminus: C20 diacid + αGlu
B15: M12 (peptide)
peptide: B8 peptide
modifications: not fully specified; N terminus: C20 diacid + βAsp
B16: M28 (peptide)
peptide: B8 peptide
modifications: N terminus: C18 diacid + Trx+2 AEEAs
B17: M15 (peptide)
peptide: B8 peptide
modifications: N terminus: C18 diacid + Trx
B18: M29 (peptide)
peptide: B8 peptide
modifications: not fully specified; N terminus: C20 diacid + Inp+2 AEEAs
B19: M11 (peptide)
peptide: {C18 diacid}-EASQLSTAVLGRLSDELHRLQDYPRTDVGSGSP-NH2
B20: M24 (peptide)
peptide: {C18 diacid}-E[AEEA][AEEA]ASQLSTAVLGRLSDELHRLQDYPRTDVGSGSP-NH2
B21: M30 (peptide)
peptide: {C18 diacid-Inp′-AEEA-AEEA}-ASQLSTAVLGRLSDELHRLQDYPRTDVGSGSP-NH2
B22: M5 (peptide)
peptide: ASQLSTAVLGRLSQELHRLQDYPRTDVGSGSP-NH2
B23: M9 (peptide)
peptide: {C16 diacid-γGlu}-ASQLSTAVLGRLSDELHRLQDYPRTDVGSGSP-NH2
modifications: ends and bridges not checked
B24: N3 (peptide)
peptide: {C18 diacid-βAsp-AEEA-AEEA}-KCNTATCATQRLADFLRHSSNNLKPILPPTNVGSNT[Hyp]-NH2
modifications: disulfide 2-7 (inferred); ends not checked
B25: M22 (peptide)
peptide: {C18 diacid-γGlu-AEEA-AEEA}-ASQLSTAVLGRLSDELHRLQDYPRTDVGSGSP-NH2
B26: M6 (peptide)
peptide: {C20 diacid-γGlu}-ASQLSTAVLGRLSDELHRLQDYPRTDVGSGSP-NH2
modifications: ends and bridges not checked
B27: M18 (peptide)
peptide: B8 peptide
modifications: not fully specified; N terminus: C20 diacid + yGlu+2 AEEAs

molecular target: T1, amylin receptor (hAMY3R); assay: cell-based or functional assay

Binder	EC50, CRE-luciferase reporter in amylin receptor/CRE-luc CHO cells, 24 h [nM]	EC50, CRE-luciferase reporter in amylin receptor/CRE-luc CHO cells (incubation presumably 4 h, per paragraph 38) [nM]	EC50, CRE-luciferase reporter in amylin receptor/CRE-luc CHO cells (incubation presumably 24 h) [nM]
B1	0.022	–	–
B2	–	0.009	0.04
B3	0.016	–	–
B4	0.063	–	–
B5	0.008	–	–
B6	0.016	–	–
B7	0.016	–	–
B8	0.017	–	–
B9	0.456	–	–
B10	0.017	–	–
B11	0.044	–	–
B12	0.004	–	–
B13	0.082	–	–
B14	0.069	–	–
B15	0.017	–	–
B16	0.002	–	–
B17	0.119	–	–
B18	0.006	–	–
B19	0.016	–	–
B20	0.007	–	–
B21	0.001	–	–
B22	0.033	–	–
B23	0.002	–	–
B24	–	0.001	–
B25	0.015	–	–
B26	0.017	–	–

molecular target: T2, calcitonin receptor (hCTR); assay: cell-based or functional assay

Binder	EC50, CRE-luciferase reporter in calcitonin receptor/CRE-luc CHO cells, 24 h [nM]
B1	0.194
B4	0.259
B5	0.024
B6	0.085
B7	0.165
B8	0.138
B9	0.587
B27	0.069
B13	0.376
B15	0.073
B17	0.469
B19	0.071
B20	0.081
B23	0.12
B26	0.028

molecular target: T1, amylin receptor (hAMY3R); assay: cell-based or functional assay; remark: another data set of the same source

Binder	fold increase of agonistic activity against the amylin receptor, compared with M17 [fold]
B21	~70

molecular target: T2, calcitonin receptor (hCTR); assay: cell-based or functional assay; remark: another data set of the same source

Binder	Fold change in activity against hCTR (benchmark D1) [fold]	hCTR EC50, CRE-luciferase reporter cells [nM]
B4	0.332	–
B8	0.623	–
B9	0.147	–
B12	0.161	0.533
B27	1.25	–
B13	0.229	–
B15	1.18	–
B16	0.966	0.089
B17	0.183	–
B18	0.551	0.156
B19	1.21	–
B20	1.06	–
B21	0.848	0.101
B26	3.07	–

molecular target: T1, amylin receptor (hAMY3R); assay: cell-based or functional assay; remark: another data set of the same source

Binder	Fold change in activity against hAMY3R (benchmark D1) [fold]	hAMY3R EC50, CRE-luciferase reporter cells [nM]
B4	0.571	–
B8	2.12	–
B9	0.079	–
B12	9	–
B27	2.25	0.016
B13	0.439	–
B15	2.12	–
B16	18	–
B17	0.303	–
B18	6	–
B19	2.25	–
B20	5.14	–
B21	36	–
B26	2.12	–
